In article PMC6348423, “Rapid Mapping of Protein Interactions Using Tag‐Transfer Photocrosslinkers” (Angewandte Chemie (International Ed. in English), 2018):
Ends that are not written are not given here. Peptide text beside a SMILES is read from it. * marks the point of attachment. MTS‑TFMD = trifluoromethyl phenyl diazirine photocrosslinker tag, disulfide-linked to Cys via MTS; MTS‑diazirine = alkyl diazirine tag, disulfide-linked to Cys via MTS; X1 = FC(F)(F)C1(c2ccc(CS*)cc2)N=N1; X2 = CC1(CCS*)N=N1

T1: MCL-1 (human, UniProt Q07820 1-350)
T1 chain: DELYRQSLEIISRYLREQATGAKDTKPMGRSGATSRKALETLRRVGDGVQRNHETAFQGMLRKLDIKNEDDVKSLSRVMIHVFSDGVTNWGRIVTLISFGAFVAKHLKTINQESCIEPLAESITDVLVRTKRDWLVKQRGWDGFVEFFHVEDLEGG


target: T2, MCL-1 (Homo sapiens, UniProt Q07820); experiment: Photo-crosslinking of labelled BID80-102 peptides to MCL-1, SDS-PAGE band intensity; details: 20 μM labelled peptide + 20 μM MCL-1, TBS pH 7.6; 365 nm UV LED, 1 min; SDS-PAGE band intensity of crosslinked vs non-crosslinked MCL-1; value ± SD of three repeats; SD
T2 construct: made in house
Protocol: Cross-linking experiments
For all irradiation methods, samples were prepared in the following way. For crosslinking of MCL-1/BID80-102, 20 μL of a solution containing MTS-diazirine or MTS-TFMD labelled BID80-102 peptide (20 μM) and MCL-1 (20 μM) in buffer 50 mM Tris-HCl, 150 mM NaCl (TBS) pH 7.6 was prepared. […]
This was then placed under a covered LF-206.LS 6 W 365 nm lamp (Uvitec) at a distance of 12 mm from the source for different times up to 30 min. For UV LED chip experiments, acrylic chip chambers were washed with TBS pH 7.6 buffer and 33 µL of sample was added. These were then clamped into the chip holder and irradiated with the 365 nm LED for up to 30 s. A pipette was used to remove the sample from the chip via the lower filling hole. For UV LED tube experiments, 30-130 µL of sample was added to a thin-walled PCR tube and placed inside a 0.5 mL microfuge tube which itself was in a 1.5 mL microfuge tube that had been wrapped in aluminium foil (to reflect the UV irradiation within the containers). Samples were irradiated with the 365 nm LED for 30 s. To crosslink MCL-1 BID80-102, samples were irradiated using this apparatus for 1 min.
Separation and enrichment of cross-linked products
To separate and/or enrich crosslinked samples three methods were used as described in the main text.
Table S1: Affinity (EC50) of labelled BID80-102 peptides to MCL-1 as determined by competition fluorescence anisotropy assay. Crosslinking efficiency of labelled BID80-102 peptides to MCL-1 based on the SDS-PAGE band intensity of crosslinked and non-crosslinked […]
The values and standard deviations are results of three repeats. n.d = not determined as binding was too weak to enable an accurate fit to be obtained.
BID peptide EC50 for affinity to MCL-1 (nM) Crosslinked Mcl-1 (%)

T2 sequence (Q07820 whole entry): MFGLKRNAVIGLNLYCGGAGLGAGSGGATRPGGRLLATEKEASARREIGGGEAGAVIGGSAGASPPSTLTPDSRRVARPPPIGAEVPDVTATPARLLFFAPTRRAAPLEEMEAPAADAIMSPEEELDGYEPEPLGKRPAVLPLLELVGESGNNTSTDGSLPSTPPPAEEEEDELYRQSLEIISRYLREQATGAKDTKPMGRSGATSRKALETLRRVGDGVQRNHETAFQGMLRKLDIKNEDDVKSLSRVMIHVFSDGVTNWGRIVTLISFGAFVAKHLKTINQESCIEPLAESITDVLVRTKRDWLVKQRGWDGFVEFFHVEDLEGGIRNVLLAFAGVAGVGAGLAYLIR

Row | Crosslinked Mcl-1 (crosslinking efficiency) [%] | Molecule
1 | 51 ± 6 | CC[C@H](C)[C@H](NC(=O)[C@H](CC(N)=O)NC(=O)[C@H](CCCNC(=N)N)NC(=O)[C@H](CSSCc1ccc(C2(C(F)(F)F)N=N2)cc1)NC(=O)[C@@H](NC(=O)[C@H](CC(=O)O)NC(=O)[C@H](CCC(=O)O)NC(C)=O)[C@@H](C)CC)C(=O)N[C@@H](C)C(=O)N[C@@H](CCCNC(=N)N)C(=O)N[C@@H](Cc1c[nH]cn1)C(=O)N[C@@H](CC(C)C)C(=O)N[C@@H](C)C(=O)N[C@@H](CCC(N)=O)C(=O)N[C@H](C(=O)NCC(=O)N[C@@H](CC(=O)O)C(=O)N[C@@H](CO)C(=O)N[C@@H](CCSC)C(=O)N[C@@H](CC(=O)O)C(=O)N[C@@H](CCCNC(=N)N)C(=O)N[C@@H](CO)C(=O)N[C@H](C(=O)N[C@@H](Cc1c[nH]c2ccccc12)C(N)=O)[C@@H](C)CC)C(C)C [MTS-TMFD labelled I83C] (Ac-EDIC(X1)RNIARHLAQVGDSMDRSIW-NH2)
2 | 53 ± 1 | CC[C@H](C)[C@H](NC(=O)[C@H](CO)NC(=O)[C@H](CCCNC(=N)N)NC(=O)[C@H](CC(=O)O)NC(=O)[C@H](CCSC)NC(=O)[C@H](CO)NC(=O)[C@H](CC(=O)O)NC(=O)CNC(=O)[C@@H](NC(=O)[C@H](CCC(N)=O)NC(=O)[C@H](C)NC(=O)[C@H](CC(C)C)NC(=O)[C@H](Cc1c[nH]cn1)NC(=O)[C@H](CCCNC(=N)N)NC(=O)[C@H](C)NC(=O)[C@H](CSSCc1ccc(C2(C(F)(F)F)N=N2)cc1)NC(=O)[C@H](CC(N)=O)NC(=O)[C@H](CCCNC(=N)N)NC(=O)[C@@H](NC(=O)[C@@H](NC(=O)[C@H](CC(=O)O)NC(=O)[C@H](CCC(=O)O)NC(C)=O)[C@@H](C)CC)[C@@H](C)CC)C(C)C)C(=O)N[C@@H](Cc1c[nH]c2ccccc12)C(N)=O [MTS-TMFD labelled I86C] (Ac-EDIIRNC(X1)ARHLAQVGDSMDRSIW-NH2)
3 | 26 ± 1 | CC[C@H](C)[C@H](NC(=O)[C@H](CC(N)=O)NC(=O)[C@H](CCCNC(=N)N)NC(=O)[C@@H](NC(=O)[C@@H](NC(=O)[C@H](CC(=O)O)NC(=O)[C@H](CCC(=O)O)NC(C)=O)[C@@H](C)CC)[C@@H](C)CC)C(=O)N[C@@H](C)C(=O)N[C@@H](CCCNC(=N)N)C(=O)N[C@@H](Cc1c[nH]cn1)C(=O)N[C@@H](CC(C)C)C(=O)N[C@@H](C)C(=O)N[C@@H](CCC(N)=O)C(=O)N[C@H](C(=O)NCC(=O)N[C@@H](CC(=O)O)C(=O)N[C@@H](CO)C(=O)N[C@@H](CSSCc1ccc(C2(C(F)(F)F)N=N2)cc1)C(=O)N[C@@H](CC(=O)O)C(=O)N[C@@H](CCCNC(=N)N)C(=O)N[C@@H](CO)C(=O)N[C@H](C(=O)N[C@@H](Cc1c[nH]c2ccccc12)C(N)=O)[C@@H](C)CC)C(C)C [MTS-TMFD labelled M97C] (Ac-EDIIRNIARHLAQVGDSC(X1)DRSIW-NH2)
4 | 31 ± 3 | CC[C@H](C)[C@H](NC(=O)[C@H](CC(N)=O)NC(=O)[C@H](CCCNC(=N)N)NC(=O)[C@@H](NC(=O)[C@@H](NC(=O)[C@H](CC(=O)O)NC(=O)[C@H](CCC(=O)O)NC(C)=O)[C@@H](C)CC)[C@@H](C)CC)C(=O)N[C@@H](C)C(=O)N[C@@H](CCCNC(=N)N)C(=O)N[C@@H](Cc1c[nH]cn1)C(=O)N[C@@H](CC(C)C)C(=O)N[C@@H](C)C(=O)N[C@@H](CCC(N)=O)C(=O)N[C@H](C(=O)NCC(=O)N[C@@H](CC(=O)O)C(=O)N[C@@H](CO)C(=O)N[C@@H](CCSC)C(=O)N[C@@H](CC(=O)O)C(=O)N[C@@H](CCCNC(=N)N)C(=O)N[C@@H](CSSCc1ccc(C2(C(F)(F)F)N=N2)cc1)C(=O)N[C@H](C(=O)N[C@@H](Cc1c[nH]c2ccccc12)C(N)=O)[C@@H](C)CC)C(C)C [MTS-TMFD labelled S100C]
5 | 19 ± 2 | CC[C@H](C)[C@H](NC(=O)[C@H](CC(N)=O)NC(=O)[C@H](CCCNC(=N)N)NC(=O)[C@H](CSSCCC1(C)N=N1)NC(=O)[C@@H](NC(=O)[C@H](CC(=O)O)NC(=O)[C@H](CCC(=O)O)NC(C)=O)[C@@H](C)CC)C(=O)N[C@@H](C)C(=O)N[C@@H](CCCNC(=N)N)C(=O)N[C@@H](Cc1c[nH]cn1)C(=O)N[C@@H](CC(C)C)C(=O)N[C@@H](C)C(=O)N[C@@H](CCC(N)=O)C(=O)N[C@H](C(=O)NCC(=O)N[C@@H](CC(=O)O)C(=O)N[C@@H](CO)C(=O)N[C@@H](CCSC)C(=O)N[C@@H](CC(=O)O)C(=O)N[C@@H](CCCNC(=N)N)C(=O)N[C@@H](CO)C(=O)N[C@H](C(=O)N[C@@H](Cc1c[nH]c2ccccc12)C(N)=O)[C@@H](C)CC)C(C)C [MTS-diazirine labelled I83C] (Ac-EDIC(X2)RNIARHLAQVGDSMDRSIW-NH2)
6 | 16 ± 2 | CC[C@H](C)[C@H](NC(=O)[C@H](CO)NC(=O)[C@H](CCCNC(=N)N)NC(=O)[C@H](CC(=O)O)NC(=O)[C@H](CCSC)NC(=O)[C@H](CO)NC(=O)[C@H](CC(=O)O)NC(=O)CNC(=O)[C@@H](NC(=O)[C@H](CCC(N)=O)NC(=O)[C@H](C)NC(=O)[C@H](CC(C)C)NC(=O)[C@H](Cc1c[nH]cn1)NC(=O)[C@H](CCCNC(=N)N)NC(=O)[C@H](C)NC(=O)[C@H](CSSCCC1(C)N=N1)NC(=O)[C@H](CC(N)=O)NC(=O)[C@H](CCCNC(=N)N)NC(=O)[C@@H](NC(=O)[C@@H](NC(=O)[C@H](CC(=O)O)NC(=O)[C@H](CCC(=O)O)NC(C)=O)[C@@H](C)CC)[C@@H](C)CC)C(C)C)C(=O)N[C@@H](Cc1c[nH]c2ccccc12)C(N)=O [MTS-diazirine labelled I86C] (Ac-EDIIRNC(X2)ARHLAQVGDSMDRSIW-NH2)
7 | 41 ± 6 | CC[C@H](C)[C@H](NC(=O)[C@H](CC(N)=O)NC(=O)[C@H](CCCNC(=N)N)NC(=O)[C@@H](NC(=O)[C@@H](NC(=O)[C@H](CC(=O)O)NC(=O)[C@H](CCC(=O)O)NC(C)=O)[C@@H](C)CC)[C@@H](C)CC)C(=O)N[C@@H](C)C(=O)N[C@@H](CCCNC(=N)N)C(=O)N[C@@H](Cc1c[nH]cn1)C(=O)N[C@@H](CC(C)C)C(=O)N[C@@H](C)C(=O)N[C@@H](CCC(N)=O)C(=O)N[C@H](C(=O)NCC(=O)N[C@@H](CC(=O)O)C(=O)N[C@@H](CO)C(=O)N[C@@H](CSSCCC1(C)N=N1)C(=O)N[C@@H](CC(=O)O)C(=O)N[C@@H](CCCNC(=N)N)C(=O)N[C@@H](CO)C(=O)N[C@H](C(=O)N[C@@H](Cc1c[nH]c2ccccc12)C(N)=O)[C@@H](C)CC)C(C)C [MTS-diazirine labelled M97C] (Ac-EDIIRNIARHLAQVGDSC(X2)DRSIW-NH2)

Target: T1, MCL-1
Experiment: FP
Details: not given

Row | EC50 [nM] | Molecule
8 | 360 | EDIIRNIARHLAQVGDSMDRCIP (Cys100 disulfide-linked to MTS-diazirine (alkyl diazirine) tag; synthetic peptide, termini not stated in main text Limits not printed in the main text (supplement); 172-327 is the usual soluble MCL-1 construct for BH3 assays, close to the PDB 2KBW construct) [BID_(80-102) S100C tagged with MTS-diazirine]
9 | 460 | EDIIRNIARHLAQVGDSMDRSIP (Limits not printed in the main text (supplement); 172-327 is the usual soluble MCL-1 construct for BH3 assays, close to the PDB 2KBW construct) [WT BID_(80-102)]
10 | 255 | EDIIRNIARHLAQVGDSC(MTS‑TFMD)DRSIP [BID_(80-102) M97C tagged with MTS-TFMD]
11 | 287 | EDIIRNIARHLAQVGDSMDRCIP (Cys100 disulfide-linked to MTS-TFMD (trifluoromethyl phenyl diazirine) tag; synthetic peptide, termini not stated in main text Limits not printed in the main text (supplement); 172-327 is the usual soluble MCL-1 construct for BH3 assays, close to the PDB 2KBW construct) [BID_(80-102) S100C tagged with MTS-TFMD]
12 | 406 | EDIC(MTS‑diazirine)RNIARHLAQVGDSMDRSIP [BID_(80-102) I83C tagged with MTS-diazirine]
13 | 422 | EDIIRNIARHLAQVGDSC(MTS‑diazirine)DRSIP [BID_(80-102) M97C tagged with MTS-diazirine]
14 | 1410 | EDIIRNC(MTS‑TFMD)ARHLAQVGDSMDRSIP [BID_(80-102) I86C tagged with MTS-TFMD]
15 | 5510 | EDIIRNC(MTS‑diazirine)ARHLAQVGDSMDRSIP [BID_(80-102) I86C tagged with MTS-diazirine]
16 | 338 | EDIC(MTS‑TFMD)RNIARHLAQVGDSMDRSIP [BID_(80-102) I83C tagged with MTS-TFMD]
17 | 8750 | EDIIRNIARHLAQC(MTS‑diazirine)GDSMDRSIP [BID_(80-102) V93C tagged with MTS-diazirine]
